Experimental data taken from the nanobody polyreactivity screen of Harvey et al. (2022).

Assay: yeast display, Sf9 membrane polyspecificity reagent, FACS + sequencing; frameworks hold sequencing errors
How it was run: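 Synthetic nanobody libraries on Saccharomyces cerevisiae BJ5465 were galactose-induced for 36–48 hours, stained 1 hour at 4 °C with 10% biotinylated, detergent-solubilized Sf9 membrane reagent and enriched on streptavidin microbeads. FACS then separated cells into low and high (top ~1%) gates by anti-HA (expression) and streptavidin (reagent binding) fluorescence. Genes were colony-PCR amplified, MiSeq 2 × 250 sequenced and CDR-length filtered. A clone's polyreactivity label is that of its gate of origin.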

Sequence | polyreactivity (PSR sort gate)
QVQLVESGGGLVQAGGSLRLSCAASGSTFPGNAMGGYRQAPGKERELVAAINWSGDSTYYADSVKGRFTISRDNAKNTVYLQMNSLKPEDTAVYYCAAYGDGYYYWGQGTQVTVSS | low polyreactivity
QVQLVESGGGLVQAGGSLRLSCAASGSIFGYNAMGWSRQAPGKERELVAGITSGTSTYYADSVKGRFTISRDNAKYTVYLQMNSLKPEDTEVYYCARTSYRFYRKRYYWGQGTQVTVSS | high polyreactivity
QVQLVESGGGLVQAGGSLRLSCAASGRIFLVNAMGWDRQAPGKERELVAAINFISGSTYYADSVKGRFTISRDNAKNTVYLQMNSLKPEDTAVYYCAAYSYWSYVQRYNLEYDYWGQGTQVTVSS | low polyreactivity
QVQLVESGGGLVQAGGSLRLSCAASGFTFLYNAMGWYRQAPVKERELVASINSGGSTNYADSVKGRFTISRDNAKNTVYLQMNSLKPEDTAVYYCNAKRHVRKGDYWGLGTQVTVSS | low polyreactivity
QVQLVESGGVLVQPGCILRLSCAASGRIYWYYAMGWYRQAPGKERELVAAISRSRGSTYYADSVKGRFTISRDNEKNTVYLQMNSLKPEDTAVYYCAAGARAFDDDYWGQGTQVTVSS | low polyreactivity
QVQLVESGGGLVQAGGSLRLSCAEYDMGWYRQAPGKERELVATITARGGSTYADSVKGRFTISRDNAKNTVYLQMNSLKPEDTAVYYCAADRFFWLRSYPRYYYWGQGTQVTVSS | low polyreactivity
QVQLVESGAGLVQAGGSLRISCAASGRIFYVYAMGWYRQAPGKEREFVASISWSGGSTYYADSVKGRFTISRDNANNTVLLQMNSLKPADTAVYYCNARAFTQRYDYWGQGTQVTVSS | low polyreactivity
QVQLVESGGGLVQAGGSLRLICAASGFTFLTYAMGWYRQAPGKERELVAAIDSGDSTKYADSVKGRFTISRDNAKYTVYLQMNSLKPEDTAVYYCNASRRYHVLAPYDYWGQGTQVTVSS | low polyreactivity
QVQLVESGGGLVQAGGSLRLSCAASGSTFEHYTMGWYRQAPGKERELVAAINGRGGSTYYADSVKGRFTISRDNAKNTVYLQMNSLKPEDTAVYYCAAVYGFRDYDYWGQGTQVTVSS | high polyreactivity
QVQLVESVGGLVQAGGSLRLTCAASGFTFGPYAMGCYRQAAGKERELVAAITNRGGSTYADSVKGRFTISRDNAKNTVYLQMNSLKPEDTAVYYCATVSALEYNYWGQGTQVTVSS | low polyreactivity
QVQLVESGGGLVQAGGSLRLSCAASGFTLLKNAMRGYRQAPGKERELVAAIRVSGGSTYYADSVKGRFTISRDNAKNSVYLQMNSLKPEDTAVYYCAAKYLRWPVSTMYYWGQGTQVTVSS | high polyreactivity
QVQLVESGGGLVQAGGSLRLSCAASGFTFSTNAMGWYRQAPGKERELVAAITWRGGSTYYADSVKGRFTISRDNAKNTVYLQMNSLKPEDTAVYYCARRSRGSHVSYYKKFDYWGQGTQVTVSS | low polyreactivity
QVQLVESGGGLVQAGGSLRLSCAASGFTFNRYAMGWYRQAPGKERELVAAISWSGTSTYYADSVKGRFTISRDNAKNTVYLQMNSLKPEDPAVYYCAAYPALTGGLPKSRGYYWGQGTQVTVSS | high polyreactivity
QVQLVESGGGLVQAGGSLRLSCAAYGFTFSWYAMGWYRQAPGKERELVAAISSSGGSTYYADSVKGRFTISRDNAKNTVYLQMNSLKPEDTAVYYCNAYRSASVVVGYDYWGQGTQVTVSS | high polyreactivity
QGQLVESGGGLVQAGGSLRLSCAPSGGTFEFYTMGWYRQAPGKERELVAVINASGDSTYYADSVKGRFTISRDNAKNTVYLQMNSLKPEDTAVYYCAADHRGEYDYWGQGTQVTVSS | low polyreactivity
QVQLVESGGGLVQAGGSLRLSCAASGSIFRRYAMGWYRQAPGKERELVAAISGSAGSTYYADSVKGRFTISRDNAKNTVYLQMNSLKPEDTAVYYCKTDRSRSPGDVESASDIKRDYWGQGTQVTVSS | low polyreactivity
QVQLVESGGGLVQAGGSLRLSCAASGSTLSRYTMGWYRPEPGKERELVAAIRSSGGSTYYADSVKGRFTISRDNAKNTVYLQMNSLKPEDTAVYYCARTQQRTTERVHWIRYYYWGQGTQVTVSS | low polyreactivity
QVQLVESGGGLVQAGGSLRLSCAASGSIIGDNTMGWYRQAPGKERELVATIRKNGASTTYADSVKGRFTISRDNAKNTVYLQMNSLKPEDTAVYYCARDHHTKYNYWGQGTQVTVSS | low polyreactivity
QVQLVESGGGLVQAGGSLRLSCAASGFIFWPYAMGWYRQAPGKESELVAAITTGGSTNYADSVKGRFTISRDNAKNTVYLQMNSLKPEDTAVYYCAKGYYFGYYEFDYWGQGTQVTVSS | high polyreactivity
QDQLVESGGGLVQAGGSLRLSCAASGYTFAYYAMGWYRQAPGKERELVARITSGGRTYYADSVKGRFTISRDNAKNTVYLQMNSLKPEDTAVYYCNAAWPFRYRRYDYWGQGTQVSVSS | high polyreactivity
QVQLVESAGGLVQAGGSLRLSCAASGRIYGQNAMGWYRQAPGKERELVAAITGSGGRTYYADSVKGRFTISRDNAKNTVYLQMNSLKPEESAVYYSAVRVTSYYRTMDYWGQGTQVTVSS | low polyreactivity
QVQLVESGGGLVQAGGSLRLSCAASGFIFVPYAMGWYRQAPGKERELVAAIDTSGGNTYADSVKGRFTISRDNAKNTVYLQMNSLKPEDTAVYYCAARYQWDWRDYYYWGQGTQVTVSS | low polyreactivity

Sequence | polyreactivity (PSR sort gate)
QVQLVESGGGLVQAGGSLRLSCAASGRILYGYTMGWYRQAPGKERELVAAISSNGDSTYYADSVKGRFTISRDNAKNTVYLQLNSLKPEDTAVYYCAAVSIGPGEYDYWGQGTQVTVSS | low polyreactivity
QVQLQESSGGLVQAGGTLRMSCAASGTIFHFHIMGWYRQAPGKEREFVAAISYGTSTYYADSVKCRFTISRDNAKNTVFLQMNSQNPEDNEVYYCAVYDYLEVYCWYWGQGTQVTVSS | low polyreactivity
QVQLVESGGGLVQAGGSLRLSCASSGRTFRYYAKGWYRQAPGKERELVATISSGGSTNYADSVKGRFTISRDNAKNTVYFQMNSLKPEDTAVYYCAAAKYVTYLSIYYYWGQGTQVTVSS | high polyreactivity
QVQLVESGGGLVQAGGSLRLSCAASGRTFYWNPMGWYRQAPGKERELVAAITRNGGSTYYADSVKGRFTISRDNAKNTVYLQMNSLKPEDTAVYYCAARKRYGAGYDYWGQGTQVTVSS | high polyreactivity
QVQLVESGGGLVQAGGSLRLSCAASGRTFSAYAMGWYRQAPGKERELVAAITLSVGSTYYADSVKGRFTISRDNAKNTVYLQMNSLKPEDTAVYYCNKYKKGEGGITIVRFDYWGQGTQVTVSS | low polyreactivity
QVQHVETGGGLVQAGGSLRLSCAASGRIFSYNAMGWYRQPPGKERELVAAISQRGGRTYYADSVKGRFTISRDNAKNTVYLQMNSLKPEDPAVYDCNKDKGQSLSSYGYWGQGTQVTVSS | high polyreactivity
QVQLVESGGGLVQAGGSLRLSCAASGYTFVGYAMGWYRQAPGKERELVAAITNGGNTNYADSVKGRFTISRDNAKNTVYLQMNSLKPEDTAVYYCATRHSRRYSWIKYYGIGYDYWGQGTQVTVSS | high polyreactivity
QVQLVESGGGLVQAGGSLRLSCAASGIIFGGYAMGWYRQAPGKERELVAAIDSSGSSTYYADSVKGRFTISRDNAKNTVYLQMNSLKPEDTAVYYCNAASSGHSGRLTSIINDYWGQGTQVTVSS | high polyreactivity
QVQLVESGGGLVQAGGSLRLSCAASGRTFGEYAMGWYRQAPGKERELVAAISSAGSTYYADSVKGRFTISRDNAKNTVYLQMNSMKPDDTAVYYCASSRKYGYGYWGQRTQVTVSS | high polyreactivity
QVHLLESGGGLVKAGGILRLSCAASGYIFPRYAMGSYRQSPGKDRELVAAITSGGSTYYADSVKGRFTISRDNAKNTVYLQMNSLKPEDTAVYYCIDPYHGREYEWGQGTQVTVSS | high polyreactivity
QVQLVESGGGLVQAGGSLRLSCAASGITFSYNVMGWYRQAPGKEREFVAAISDGGSTYYADSVKGRFTISRDNAKNTVYLQMNSLKPEDTAVYFCAKGYRYTYSQQVIYDYYYWGQGTQVTVSS | low polyreactivity
QVQLVESGVGLVQAGGSLRLSCAASGRLFQYYAMGWYRQAPGKERELVASISGTGGSTYYADSVKGRFTISRDNAKNTVYLQMNSLKPEDTAVYYCAVRVKLQYWREYNYWGQGTQVTVSS | high polyreactivity
QVQLVESGGGLVQAGGSLRLSCAASGITFSVNAMGWYRQAPGKEREFVAAISSSGGSTYYADSLKGRFTISRDNAKNTVYLQMNSLKPEDTAVYYCAASGRVQRQHYRPYPYGYWGQGTQVTVSS | high polyreactivity
QVQLVESGGGLVQAGGSLRLSSAATGSIFRGNAIGWYRQAPWKELELVASISYSRGSTYYADSVKGRFTISRDNEKNTVYLQMNSVKPEETAVYYCARDYDAAYYLSEYIRSVEFDYWGQGTQVTVSS | low polyreactivity
QVQLVESGGGLVQAGGSLRLSCAASGRIFVANAMGWYRKAPGTERELVAAISRRGGRTYYADSVKGRFTISRDNAKNTVYLQMNSLKPEDTAVYYCAAIRSVTRFPRRYDYWGQGTPVTVSS | high polyreactivity
QVQLVESGGGLVQAGGSLRLSCAASGRIFATNAMGWYRQAPGKERELVATITRSAGRTYYADSVKGRFTISRDNEKNTVYLQMNILKPDVTAVYYCAADGYSTAVDDTVRYIVEYEFWGQGTQVTVSS | low polyreactivity
QVHHVESGGGLVQAGGSRRLSSAASRIIIDTNAMGWSSQAPGKERELVASISTRGGSTYYADSVKGRFTISRDNAKNTVYLQMISLKPANTPVYYCNAVQTYSGGYEYWGQGTQVTVSS | high polyreactivity
QVQLVESGGGLVQAGGSLRLSCAASGRISLVNAMGWYRQAPGKERELVAAITYTGGSTYYADSVKGRFTISRDNAKNTVYLQMNSLKPEDTAVYYCAAEYYYVYTYDYWGQGTQVTVSS | high polyreactivity
QVQLVESGGGLVQAGGSLRLSCAASGSTFPVYAMGWYRQAPGKERELVARISSGSSTNYADSVKGRFTNSRDKAKNTVYLQMNSLKPEDTAVSYCAAQTPRFVWQKGPLDSEEYWGQGTQVTVSS | high polyreactivity
QVQLVESGGGLVQAGGRLRLSCAASGSTFGLNAMGWYRQAPGTERELVAAITSRGTRTYYADSVKGRFTISRDNAKNTVYLQMNSLKTEDTAGYKCAKDSGATRYGEYDYWGQGTQVTVSS | low polyreactivity
QVQLVESGGGLVQAGGSLRLSCAASGRTFRWYAMGWYRQAPGKERELVATITSGGSTNYADSVKGRFTISRDNAKNTVYLQMNSLKPEDTAVYYCAAWSYAYYYRLRYVSHDYWGQGTQVTVSS | high polyreactivity
